Test system: OT1 site
Assay: Off-target OT1 editing, MessengerMax transfection in PHH, Targeted Amplicon sequencing
Assay type: cell-based, human
Conditions: PHH lot STL, MessengerMax with mRNA MA079, 5,000 and 2,500 ng/mL total RNA
Experimental: The genomic DNA from PHH cells transfected with one of 20 sgRDNA spacer sequence variants were also tested for off-target editing percentage by targeted amplicon sequencing (FIGS. 31-32). The genomic DNA samples assessed were from cells that received doses of the total RNA of 5,000 ng/mL and 2,500 ng/mL. OT1 primer (GA0100_OT_B2) was used to measure editing percentage (A>G) in position 1-10 of the OT1 site (Table. 4). Technical replicates were performed.
Table. […] VEP Gene and VEP Consequence refer to the genomic location and functional role of OT1 as determined by the Ensembl Variant Effect Predictor (VEP) tool v98.3. […] The CADD score was determined using the Combined Annotation-Dependent Depletion v1.6 (CADD) framework, which aims to annotate and interpret human genetic variation through the integration of diverse annotations into a single measure. […] To bioinformatically assess the potential for oncogenesis due to editing at the off-target site, it was assessed whether OT1 is located within a gene in the Cancer Gene Census of the Catalogue of Somatic Mutations in Cancer (COSMIC) v92; it is not. […]

B1: GA690: ANGPTL3 sgRDNA spacer sequence variant with minimally modified tracrRNA (nucleic acid)
guide: AAGATACCTGAATAACCCTCGTTTTAGAGCTAGAAATAGCAAGTTAAAATAAGGCTAGTCCGTTATCAACTTGAAAAAGTGGCACCGAGTCGGTGCTTTT
modifications: DNA-containing spacer with minimally modified tracrRNA, spacer pattern not given here
How did the “off-target editing (A>G) at OT1, positions 1-10” value turn out when B1 was run?
Its value is “indeed edited at OT1”.

— patent US20240390520A1, “GENE EDITING OF PCSK9 OR ANGPTL3 AND COMPOSITIONS AND METHODS OF USING SAME FOR TREATMENT OF DISEASE” (Verve Therapeutics, Inc., priority 2021, published 2024)
